This is an account of results in patent US20240010687A1 (University of Washington, published 2024).

For one experiment, the target named is T1, C3D3_AR113_Axle (D3-C3).
T1 construct: De novo designed D3 homohexameric axle, a surface redesign of 1552_1na0C3_int2_11; For biolayer interferometry the axle was Avi-tagged and enzymatically biotinylated; also called D3 axle; designed D3 axle
T1 chain: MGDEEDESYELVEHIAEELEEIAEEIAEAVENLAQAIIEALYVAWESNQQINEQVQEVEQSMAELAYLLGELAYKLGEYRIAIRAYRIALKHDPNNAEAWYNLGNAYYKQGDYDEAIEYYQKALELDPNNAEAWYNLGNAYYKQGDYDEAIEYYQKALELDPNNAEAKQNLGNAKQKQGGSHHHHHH
The experiment can be described thus: negative stain EM after pH-controlled, oxidoreductive assembly of axle and ring.

Another experiment deals with T2, 119RC4_20_Axle (D8-C4).
T2 construct: D8 homo-16-meric axle; two C4 rings assemble around one axle; also called D8 axle; D8A_1615
T2 chain: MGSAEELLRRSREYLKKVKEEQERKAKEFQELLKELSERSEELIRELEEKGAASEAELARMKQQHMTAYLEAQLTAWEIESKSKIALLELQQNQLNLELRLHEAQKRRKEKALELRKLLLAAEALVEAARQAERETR
The experiment can be described thus: stoichiometric mixing of separately purified axle and ring, then SEC, SAXS and EM.

For experiment [1], the target named is T3, C8D8_6_49_119RC4_20_Axle (C8-C4).
T3 construct: C8 homooctameric axle, the circular permutation version of the D8 axle; For biolayer interferometry it was Avi-tagged and biotinylated; also called C8 axle
T3 chain: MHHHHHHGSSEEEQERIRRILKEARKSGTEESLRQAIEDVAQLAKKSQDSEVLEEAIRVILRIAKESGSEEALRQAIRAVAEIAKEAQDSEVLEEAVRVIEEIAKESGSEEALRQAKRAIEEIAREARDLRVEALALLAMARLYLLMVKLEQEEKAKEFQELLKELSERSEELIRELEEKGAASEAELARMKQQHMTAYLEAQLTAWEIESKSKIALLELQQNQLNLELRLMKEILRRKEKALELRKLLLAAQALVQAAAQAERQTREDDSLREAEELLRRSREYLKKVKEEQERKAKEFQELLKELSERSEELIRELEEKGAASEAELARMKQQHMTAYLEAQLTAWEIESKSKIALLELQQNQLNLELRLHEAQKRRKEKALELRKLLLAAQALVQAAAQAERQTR
The experiment can be described thus: SEC, SAXS, biolayer interferometry binding kinetics and negative stain EM. On the procedure: (§1) FIG. 13. Biolayer interferometry assays measuring in vitro assembly of ring and axle parts into a full rotary system. For each 6 designs, the equilibrium binding curves from biolayer interferometry binding assays is shown on the left and the corresponding Biolayer interferometry kinetic binding traces shown on the right. Biotinylated axles were immobilized on the tip and the binding in a solution of fre rings was measured. For both D3-C5 and D3-C3, a fresh ring solution was prepared by buffer exchange from citrate buffer to TBS with reducing agent, and immediately used for binding assays.
(§2) Protein samples were purified by SEC in 25 mM Tris pH 8.0, 25 mM NaCl and 1% glycerol; elution fractions corresponding to the protein were further concentrated using 3K protein concentrators (Millipore Sigma) and the flow-through was used as blank for buffer subtraction. SAXS Scattering measurements were performed at the SIBYLS 12.3.1 beamline at the Advanced Light Source. […] Collected data were processed using the SAXS FrameSlice™ online server and analysed using the ScÅtter software package(23). […]

A further experiment concerns the target T4, 54.7_112_Axle.
T4 construct: Axle of a C3-C3 design (C3 homotrimer); It carries no His tag in the bicistronic pull-down; For biolayer interferometry it was Avi-tagged and biotinylated; also called C3-C3 design 54.7.112
T4 chain: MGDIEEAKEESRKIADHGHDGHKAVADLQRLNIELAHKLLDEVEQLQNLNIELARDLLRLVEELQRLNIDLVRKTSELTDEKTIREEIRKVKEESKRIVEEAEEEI
The experiment can be described thus: biolayer interferometry, biotinylated axle on streptavidin tips, ring in solution. Here is the method:
as §1
Biolayer interferometry experiments were performed on an OctetRED96 BLI system (ForteBio, Menlo Park, CA). Enzymatic protein biotinylation was performed on SEC purified Avi-tagged proteins prior to the assay. The BirA500 (Avidity, LLC) biotinylation kit was used to biotinylate protein from the IMAC elution according to the manufacturer protocol. Reactions were incubated at 4C overnight and purified using size exclusion chromatography on a Superdex™ 6 10/300 Increase GL (GE Healthcare) in TBS buffer (25 mM Tris pH 8.0, 25 mM NaCl). Streptavidin coated biosensors were equilibrated for 10 minutes in Octet buffer (10 mM HEPES pH 7.4, 25 mM NaCl, 3 mM EDTA, 0.05% Surfactant P20) supplemented with 1 mg/ml Bovine Serum Albumin (SigmaAldrich). […]
On the technique in general: In BLI a coated tip is dipped into the sample, and binding shifts an interference pattern.

For the next experiment, the target named is T5, C5C3_3250_Axle (C5-C3).
T5 construct: C5 homopentameric axle; For biolayer interferometry it was Avi-tagged and biotinylated; also called C5 axle
T5 chain: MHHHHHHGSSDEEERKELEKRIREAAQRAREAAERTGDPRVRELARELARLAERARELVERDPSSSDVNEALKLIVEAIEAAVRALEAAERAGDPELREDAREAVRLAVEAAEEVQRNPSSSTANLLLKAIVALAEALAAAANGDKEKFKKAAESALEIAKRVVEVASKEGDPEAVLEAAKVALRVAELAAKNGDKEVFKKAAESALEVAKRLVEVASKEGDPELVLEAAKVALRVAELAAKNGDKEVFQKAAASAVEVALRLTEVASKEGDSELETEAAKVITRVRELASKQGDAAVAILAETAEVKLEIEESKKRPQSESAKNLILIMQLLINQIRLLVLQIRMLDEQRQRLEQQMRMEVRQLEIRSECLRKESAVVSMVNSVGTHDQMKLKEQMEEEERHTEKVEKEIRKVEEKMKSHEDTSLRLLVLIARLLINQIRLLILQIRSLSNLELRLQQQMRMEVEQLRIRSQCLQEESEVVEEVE
In words: SEC, SAXS, biolayer interferometry binding kinetics and negative stain EM. On the procedure:
as §1, §2

B1: C3D3_AR113_Ring (D3-C3) (designed binder)
chain: MGQRSGHARQLKRHLHRLRRHLERLDKHAKHLRQILSERPQDERVKDSIDLLEESVRIVKISIKIFEASVRALLWAINKEAEELAKSPDPHDLHRAVRLARAVVQADPGSNLSKKALEIILRAAAELAKLPDPNALAAAARAASQVQREQPGSNLAKAAQEIMRQASRAAEEAARRAKETLEKAEKRGDPKTALQAVRTVVKVAAALNQIATMAGSEEAQERAARVAAEAAELALRVFELAEKQGDPHVARRARKLIQTVLQILLRILTQILETATKIIEEANKLLRKHRRSSRKDPKLVETHVELVKRHERLVRQHLKIALMHALAVLELAFPDAEAAKLASKAAKEAEELCKQSTDERLCDLLAELAALLIELAARYPDSEAAKLALKAALEAIELCKQSTDEELCEELVKLAQKLIELAKRYPDSEEAKRALKEAKELIEQCKESTDEDECRELVKRAEELIREAKEGSHHHHHH
notes: De novo designed C3 homotrimeric ring with disulfides and histidine networks at the subunit interfaces; also called C3 ring; ring of the D3-C3 rotor
As for B1, the binding result with C3D3_AR113_Axle (D3-C3) is “binds”.

B2: 119RC4_20_Ring (D8-C4) (designed binder)
chain: MGCDAIQAAAALGEAGISSNEILELLAAAAELGLDPDAIQAAAQLGEAGISSEEILELLRAAHELGLDPDAIAAAADLGQAGISSEEILELLRAAHELGLDPDAIQAAAALGEAGISSEEILELLRAAHELGLDPDAIQAAAQLGEAGISSEEILELLRAAHELGLDPDCIAAAADLGQAGISSSEITALLLAAAAIELAKRADDKDVREIVRDALELASRSTNDEVIRLALEAAVLAARSTDSDVLEIVKDALELAKQSTNEEVIKLALKAAVLAAKSTDEEVLEEVKEALRRAKESTDEEEIKEELRKAVEEAEGSHHHHHH
notes: C4 ring of four subunits, each fused to DHR20; two rings sit on each D8 axle; also called C4 ring
For the molecule B2, the binding result with 119RC4_20_Axle (D8-C4) is “binds”.

B3: C8D8_6_49_119RC4_20_Ring (C8-C4) (designed binder)
chain: MGCDAIQAAAALGEAGISSNEILELLAAAAELGLDPDAIQAAAQLGEAGISSEEILELLRAAHELGLDPDAIAAAADLGQAGISSEEILELLRAAHELGLDPDAIQAAAALGEAGISSEEILELLRAAHELGLDPDAIQAAAQLGEAGISSEEILELLRAAHELGLDPDCIAAAADLGQAGISSSEITALLLAAAAIELAKRADDKDVREIVRDALELASRSTNDEVIRLALEAAVLAARSTDSDVLEIVKDALELAKQSTNEEVIKLALKAAVLAAKSTDEEVLEEVKEALRRAKESTDEEEIKEELRKAVEEAEGSHHHHHH
notes: C4 ring of four subunits; also called C4 ring
As to B3, in experiment [1], the binding result is listed as “binds”.

B4: 54.7_112_Ring (designed binder)
chain: MGVEELLLLARAAHHSGTTVEEAYKLALKLGISVKELLLLARAAHNSGTTVEEAYKLALKLGISVEELLLLAKAAHYSGTTVEEAYKLALKLGISVRELLLLAKAAHFSGTTVEEAYKLALKLGISVEELLLLARAAHHSGTTVEEAYKLALKLGISVKELLLLARAAHNSGTTVEEAYKLALKLGISVEELLLLAKAAHYSGTTVEEAYKLALKLGISVRELLLLAKAAHFSGTTVEEAYKLALKLGISVEELLLLARAAHHSGTTVEEAYKLALKLGISVKELLLLARAAHNSGTTVEEAYKLALKLGISVEELLLLAKAAHYSGTTVEEAYKLALKLGISVRELLLLAKAAHFSGTTVEEAYKLALKLGISGSHHHHHH
notes: also called C3-C3 design 54.7.112
On to B4, for which the binding result with 54.7_112_Axle is “binds”.

B5: C5C3_3250_Ring (C5-C3) (designed binder)
chain: MGNRSLHANKLKTHLENLREHLKRLDEHAKQLRDILSEHPHDERVKDSIDLLEESVRIVKISIKIFEASVRALLWAINKEAEELAKSPDPADLERAVRLAAAVVRADPGSNLSKKALEIILRAAAELAKLPDPKALAAAAEAASRVQREQPGSNLAKAAQEIMRQASRAAEEAARRAKETLEKAEKDGDPRTALQAVMTVVEVAKALNIIATMAGSEEAQERAARVAAEAAELALRVFELAEKQGDPEVAHNARKLIEIVLHILLQILTQILETATKIIREANELLEKHRRSHHHDPKLVETHVELVKRHERLVRQHLKIALMHALAVLELAFPDAEAAKLASKAAKEAEELCKQSTDERLCDLLAELAALLIELAARYPDSEAAKLALKAALEAIELCKQSTDEELCEELVKLAQKLIELAKRYPDSEEAKRALKEAKELIEQCKESTDEDECRELVKRAEELIREAKEGSHHHHHH
notes: C3 homotrimeric ring; also called C3 ring
Consider B5, for which the binding result with C5C3_3250_Axle (C5-C3) is “binds”.
